Tests used:
[1] = target: control discoidal lipid bilayer-membrane scaffold protein complex without GPCR1 (empty complex); assay: Octet assay; biotinylated empty complex captured on streptavidin through the Bir-A tag of the membrane scaffold protein (FIG. 1B)
[2] = target: discoidal lipid bilayer-membrane scaffold protein complex including GPCR1 transmembrane protein (human); assay: Octet assay; biotinylated complex with GPCR1 captured on streptavidin through the Bir-A tag of the membrane scaffold protein (FIG. 1B)

- Octet response [1]: 0.69 nm
- Octet response [2]: 3 nm
Substance: streptavidin tethered to plates (from UniProt P22629 37-163)
